Test [1] deals with CD320 extracellular, TC-binding part (MBP cleaved), as used for biochemical analysis of the complex (human) (UniProt Q9NPF0). Briefly: co-expression and co-purification; TC construct and His9-MBP-CD320 construct co-expressed and secreted from Sf21 cells, complex captured from the medium on Ni-NTA through the receptor's tag.
Test [2] has as its target CD320(Gly4Ser)4 (flexible linker mutant: EGF-like domain replaced by (Gly4Ser)4) (human) (UniProt Q9NPF0). Briefly: native MS; native ESI-MS of the purified complex and of its individually purified SEC peaks.
The target in test [3] is MBP-tagged, biotinylated CD320 (CD320AVI) (human) (UniProt Q9NPF0). Briefly: ELISA; solid-phase binding assay as a2, TC diluted in buffer with 100 mM Tris-HCl pH 7.5, 0.5 mM CaCl2, 150 mM NaCl; n=5. A general note: An ELISA detects its analyte on a solid surface through an enzyme-linked reagent.
The target is the same in test [4]. Briefly: ELISA; solid-phase binding assay as a2, TC diluted in buffer with 100 mM sodium acetate pH 4.8, 0.5 mM CaCl2, 150 mM NaCl; n=5.
Test [5] has as its target CD320 extracellular, TC-binding part (MBP cleaved), as used for biochemical analysis of the complex (human) (UniProt Q9NPF0). Nature of the test: cross-linking; purified complex at 10 mg/ml cross-linked with glutaraldehyde, 1 h RT, then high-mass MALDI-TOF mass spectrometry.
For test [6], the target named is MBP-tagged, biotinylated CD320 (CD320AVI) (human) (UniProt Q9NPF0). Briefly: ELISA; solid-phase binding assay: biotinylated MBP-tagged receptor on Neutravidin plates, tag-less TC serially diluted in 20 mM Tris pH 7.5, 0.5 mM CaCl2, 150 mM NaCl, 0.05% Tween-20, 1 h RT; TC detected with antibody A-5; single-site fit, n=5.
Test [7] addresses MBP-tagged, biotinylated CD320ΔE88 (Avi Tag) (human) (UniProt Q9NPF0). Described as above.

Chain of CD320(Gly4Ser)4 (flexible linker mutant: EGF-like domain replaced by (Gly4Ser)4) (human) (Q9NPF0 other isoform, or with tags, fused parts or gaps, change not shown): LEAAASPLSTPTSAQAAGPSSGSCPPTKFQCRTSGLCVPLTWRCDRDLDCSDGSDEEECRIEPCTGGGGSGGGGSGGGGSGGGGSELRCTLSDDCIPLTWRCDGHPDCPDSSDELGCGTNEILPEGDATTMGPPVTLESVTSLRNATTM

B1: TCα (α domain of human transcobalamin, residues 1-290) (domain or fragment)
chain: EMCEIPEMDSHLVEKLGQHLLPWMDRLSLEHLNPSIYVGLRLSSLQAGTKEDLYLHSLKLGYQQCLLGSAFSEDDGDCQGKPSMGQLALYLLALRANCEFVRGHKGDRLVSQLKWFLEDEKRAIGHDHKGHPHTSYYQYGLGILALCLHQKRVHDSVVDKLLYAVEPFHQGHHSVDTAAMAGLAFTCLKRSNFNPGRRQRITMAIRTVQEEILKAQTPEGHFGNVYSTPLALQFLMTSPMRGAELGTACLKARVALLASLQDGAFQNALMISQLLPVLNHKTYIDLIFPD
One may read the stoichiometry N as the number of molecules, sites or subunits per partner or assembly. For the molecule B1, the stoichiometry N in test [1] is 1 TCα:CD320.

B2: human transcobalamin (holo-TC, cyanocobalamin-bound) (natural protein)
chain: EMCEIPEMDSHLVEKLGQHLLPWMDRLSLEHLNPSIYVGLRLSSLQAGTKEDLYLHSLKLGYQQCLLGSAFSEDDGDCQGKPSMGQLALYLLALRANCEFVRGHKGDRLVSQLKWFLEDEKRAIGHDHKGHPHTSYYQYGLGILALCLHQKRVHDSVVDKLLYAVEPFHQGHHSVDTAAMAGLAFTCLKRSNFNPGRRQRITMAIRTVQEEILKAQTPEGHFGNVYSTPLALQFLMTSPMRGAELGTACLKARVALLASLQDGAFQNALMISQLLPVLNHKTYIDLIFPDCLAPRVMLEPAAETIPQTQEIISVTLQVLSLLPPYRQSISVLAGSTVEDVLKKAHELGGFTYETQASLSGPYLTSVMGKAAGEREFWQLLRDPNTPLLQGIADYRPKDGETIELRLVSW
As a reminder, the Kd is the equilibrium constant for the complex coming apart. B2: the stoichiometry N in test [2] and in test [5] was 1 TC:CD320 each time. Further, the Kd in test [3] came out at 1 nM; in test [4], 58 nM; in test [6], 1.5 nM; in test [7], 1.5 nM.

The record behind these values is PMC4947154.
